Each block holds one binder with its values, some of them ahead of it.
What was measured:
biotinylated human PD-L1 [1] = target: T1, biotinylated human PD-L1 (human, UniProt Q9NZQ7 19-239, limits assumed, biotinylated (sites not given)); test: competition ELISA, Fab with biotinylated PD-L1 on coated PD-1-Fc, pH 6.5
T1 construct: Bought from R&D Systems; also called biotinylated-PD-L1; human PD-L1 biotin

human PD-L1-Fc protein [2] = target: T2, human PD-L1-Fc protein (human, UniProt Q9NZQ7 19-239); test: ELISA, Fab on coated human PD-L1-Fc, pH 7.4; pH 7.4
T2 construct: Bought from R&D Systems; also called immobilised PD-L1-Fc; not shown: Fc part of the bought fusion protein, not described
T2 sequence (Q9NZQ7 19-239 limits assumed): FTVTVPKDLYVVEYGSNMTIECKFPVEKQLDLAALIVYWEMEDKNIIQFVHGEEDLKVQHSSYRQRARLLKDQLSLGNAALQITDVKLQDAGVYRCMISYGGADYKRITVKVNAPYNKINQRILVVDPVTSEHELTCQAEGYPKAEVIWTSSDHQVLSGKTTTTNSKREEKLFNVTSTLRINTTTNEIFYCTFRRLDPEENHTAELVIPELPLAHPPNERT

human PD-L1 on cells [3] = target: T3, human PD-L1 on cells (human, UniProt Q9NZQ7 19-290); test: flow cytometry on MDA-MB-231 cells, Krebs buffer; ratio of EC50 values
T3 construct: Endogenous on MDA-MB-231 cells or transfected into HEK293FF cells (Sino Biological plasmid); the assay field says which; also called native PD-L1 on MDA-MB-231 cells; PD-L1 expressing MDA-MB-231 cells
T3 sequence (Q9NZQ7 19-290 limits assumed): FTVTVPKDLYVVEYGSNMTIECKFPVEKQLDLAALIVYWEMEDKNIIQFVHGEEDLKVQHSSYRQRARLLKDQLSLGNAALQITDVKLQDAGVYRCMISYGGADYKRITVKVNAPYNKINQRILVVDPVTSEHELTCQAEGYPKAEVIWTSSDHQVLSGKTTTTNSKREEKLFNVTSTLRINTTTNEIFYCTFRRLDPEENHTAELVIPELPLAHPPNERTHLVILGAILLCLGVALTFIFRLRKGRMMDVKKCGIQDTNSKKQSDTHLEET
Description: (§1) Anti-PD-L1 affinity matured Fabs were tested for their ability to bind to native PD-L1 in a cell line, (MDA-MB-231 cells) in a buffer resembling the tumor microenvironment (Krebs-lactate).

human PD-L1 on cells [4] = target: T3, human PD-L1 on cells; test: flow cytometry on MDA-MB-231 cells, Krebs buffer, pH 6.5
Description: as §1

human PD-L1-Fc protein [5] = target: T2, human PD-L1-Fc protein; test: BIAcore off rate, unpurified periplasmic extract Fab on PD-L1
human PD-L1-Fc protein [6] = target: T2, human PD-L1-Fc protein; test: BIAcore off rate, unpurified periplasmic extract Fab on PD-L1, pH 6
human PD-L1 on cells [7] = target: T3, human PD-L1 on cells; test: flow cytometry on MDA-MB-231 cells, Krebs buffer, pH 7.4
Description: as §1

human PD-L1-Fc protein [8] = target: T2, human PD-L1-Fc protein; test: BIAcore off rate, unpurified periplasmic extract Fab on PD-L1, pH 7.4
human PD-L1-Fc protein [9] = target: T2, human PD-L1-Fc protein; test: ELISA, Fab on coated human PD-L1-Fc; ratio from extrapolating an OD of 0.3 at pH 6 versus pH 7.4
human PD-L1 on cells [10] = target: T3, human PD-L1 on cells; test: flow cytometry on MDA-MB-231 cells, Krebs buffer, pH 6
Description: as §1

biotinylated human PD-L1 [11] = target: T1, biotinylated human PD-L1; test: competition ELISA, Fab with biotinylated PD-L1 on coated PD-1-Fc; ratio of IC50 values
human PD-L1-Fc protein [12] = target: T2, human PD-L1-Fc protein; test: ELISA, Fab on coated human PD-L1-Fc, pH 6
human PD-L1-Fc protein [13] = target: T2, human PD-L1-Fc protein; test: ELISA, purified Fab on coated human PD-L1-Fc, pH 6 (FIG. 4)
biotinylated human PD-L1 [14] = target: T1, biotinylated human PD-L1; test: competition ELISA, Fab with biotinylated PD-L1 on coated PD-1-Fc
biotinylated human PD-L1 [15] = target: T1, biotinylated human PD-L1; test: competition ELISA, Fab with biotinylated PD-L1 on coated PD-1-Fc, pH 6
biotinylated human PD-L1 [16] = target: T1, biotinylated human PD-L1; test: competition ELISA, Fab with biotinylated PD-L1 on coated PD-1-Fc, pH 7.4
biotinylated human PD-L1 [17] = target: T1, biotinylated human PD-L1; test: competition ELISA, Fab with biotinylated PD-L1 on coated PD-1-Fc, pH 6; remark: listed apart in the source
human PD-L1 on cells [18] = target: T3, human PD-L1 on cells; test: flow cytometry on MDA-MB-231 cells, Krebs buffer with lactate, pH 6.0 (FIG. 3); pH 6.0
Description: (§2) In order to mimic an acidic tumor environment milieu with tumor cells expressing PD-L1 (The metabolism of tumors in the body, Warburg et al. J Gen Physiol. 1927; 8:519-30) the following buffers were utilised: Krebs ringer bicarbonate buffer (KRB, Amsbio catalog number KRB-1000) with 1 mM lactic acid (Sigma catalog number 252476-50DG) for pH 7.4; KRB plus 15 mM lactic acid for pH 6.5 and KRB plus 20 mM lactic acid for pH 6.0). 3 fold dilutions (100 nM to 0.0005 nM; 0) of the Fabs or IgG were prepared in the respective pH buffers and incubated with 0.60E05 MDA-MB-231 cells for 60 minutes at 4° C. The cells were then washed 3× with the respective pH buffers, at 300 g for 3 min. The cells were then incubated with 50 μl of anti-human IgG (Fab specific)-FITC (Sigma, catalog number F5512-1ML) at 1:100 dilution in the respective pH buffers. Binding of the IgG or Fab to PD-L1 expressing cells was measured by FACS (Attune Nxt) and a total of 10.000 cells were acquired per sample.

human PD-L1 on cells [19] = target: T3, human PD-L1 on cells; test: flow cytometry on MDA-MB-231 cells, Krebs buffer with lactate, pH 7.4 (FIG. 3); pH 7.4
Description: as §2

biotinylated human PD-L1 [20] = target: T1, biotinylated human PD-L1; test: competition ELISA, mAb with biotinylated PD-L1 on coated PD-1-Fc (FIG. 1A); PD-L1 binding to PD-1 (FIG. 1A)
human PD-L1-Fc protein [21] = target: T2, human PD-L1-Fc protein; test: SPR BIAcore off rate, mAb over immobilised PD-L1-Fc (FIG. 2)
Description: (§3) To assess the affinity of selected IgG formatted purified clones to human PD-L1 at pH6.0 and at pH7.4, human PD-L1-Fc protein was coated by amine coupling. Surface plasmon resonance (SPR) (BIAcore 3000, GE Healthcare) was used to determine the binding kinetics of selected IgG formatted purified clones to human PD-L1 at pH6.0 and at pH 7.4. Approximately 3000 RU of human PD-L1 Fc (R&D Systems) at 50 μg/ml in Acetate buffer pH 5.0 was immobilized onto a CM5 chip using the standard amine coupling procedure. QC of the PD-L1 immobilization was performed using an anti-PD-L1 commercial antibody (R&D systems cat. no. AF156) at 2.0 μg/ml. 1×HBS-EP pH 7.4 or HBS-EP pH 7.0 or HBS-EP […] citrate buffer pH 6.5 or HBS-EP […] citrate buffer pH 6.0, were utilized as running buffers during binding kinetic measurements. […] Fitting 1:1 binding with mass transfer was applied to the curves using the BIAevaluation software to calculate the kinetic constants of the antibody-antigen interactions including association rate (ka), dissociation rate (kd) and affinity (KD).

biotinylated human PD-L1 [22] = target: T1, biotinylated human PD-L1; test: competition ELISA, mAb with biotinylated PD-L1 on coated B7-1-Fc (CD80) (FIG. 1B); PD-L1 binding to CD80 (FIG. 1B)
human PD-L1-Fc protein [23] = target: T2, human PD-L1-Fc protein; test: SPR BIAcore, mAb over immobilised PD-L1-Fc, pH 7.4
Description: as §3

human PD-L1-Fc protein [24] = target: T2, human PD-L1-Fc protein; test: SPR BIAcore, mAb over immobilised PD-L1-Fc, pH 6.0
human PD-L1-Fc protein [25] = target: T2, human PD-L1-Fc protein; test: SPR BIAcore, mAb over immobilised PD-L1-Fc
Description: as §3

human PD-L1 on cells [26] = target: T3, human PD-L1 on cells; test: flow cytometry on MDA-MB-231 cells, Krebs buffer with lactate, pH printed as 6.6 (FIG. 3); pH printed as 6.6 (experiment described at pH 6.5); pH 6.6
Description: as §2

human PD-L1-Fc protein [27] = target: T2, human PD-L1-Fc protein; test: SPR BIAcore, mAb over immobilised PD-L1-Fc, pH 6.5
Description: as §3

human PD-L1-Fc protein [28] = target: T2, human PD-L1-Fc protein; test: SPR BIAcore, mAb over immobilised PD-L1-Fc, pH 7.0
Description: as §3

T1 sequence (Q9NZQ7 19-239 limits assumed): as the sequence (Q9NZQ7 19-239 limits assumed) above

IC50 (biotinylated human PD-L1 [1]): 40 nM | EC50 (human PD-L1-Fc protein [2]): > 10 nM | Ratio pH 6:7.4 (human PD-L1 on cells [3]): 11 | EC50 (human PD-L1 on cells [4]): 2.92 nM | Ratio pH 6 vs 7.4 (human PD-L1-Fc protein [5]): 20 | koff (human PD-L1-Fc protein [6]): 0.000699 s⁻¹ | EC50 (human PD-L1 on cells [7]): 16 nM | koff (human PD-L1-Fc protein [8]): 0.00345 s⁻¹ | Ratio pH 6:7.4 (human PD-L1-Fc protein [9]): 39 | EC50 (human PD-L1 on cells [10]): 1.45 nM | Ratio pH 6:7.4 (biotinylated human PD-L1 [11]): > 7.63 | EC50 (human PD-L1-Fc protein [12]): 0.11 nM | concentration at saturation of binding (human PD-L1-Fc protein [13]): 4 nM | fold less inhibitory activity at pH 6.5 than at pH 6 (biotinylated human PD-L1 [14]): ~3 fold | IC50 (biotinylated human PD-L1 [15]): 13.1 nM | IC50 (biotinylated human PD-L1 [16]): > 100 nM | fold less (IC50) than the control Fab 2.7A04OPT at pH 6 (biotinylated human PD-L1 [17]): ~3 fold
B1: Fab 8D06 (Fab, V domains shown)
VH: QVQLVQSGGGVVQPGRSLRLSCAASGFTFSSYGMYWVRQAPGKGLEWVAVISYDGSNKYYADSVKGRFTISRDNSKNTLNLQMNSLRAEDTAVYYCAKGALTHWGVVIGDGMDVWGQGTTVTVSS
VL: NFMLTQPHSVSESPGKTVTISCVLSPRTHAGHYYRWYQQRPGSSPTTVIYEDDQRPSGVPDRFSGSIDSSSNSASLTISGLKTEDEADYYCQSFDSTNPWVFGGGTKLTVL
notes: Purified Fab prepared from IgG with the Pierce kit; also called 8D06 Fab

EC50 (human PD-L1 on cells [18]): 2.4 nM | EC50 (human PD-L1 on cells [19]): 16.3 nM | IC50 (biotinylated human PD-L1 [20]): 0.4 nM | fold better off rate at pH 6.0 than at pH 7.4 (human PD-L1-Fc protein [21]): ~5 fold | IC50 (biotinylated human PD-L1 [22]): 1.2 nM | Kd (human PD-L1-Fc protein [23]): 2.6 nM | koff (human PD-L1-Fc protein [23]): 0.0271 s⁻¹ | kon (human PD-L1-Fc protein [23]): 1.05e+07 M⁻¹ s⁻¹ | Kd (human PD-L1-Fc protein [24]): 0.13 nM | koff (human PD-L1-Fc protein [24]): 0.000865 s⁻¹ | kon (human PD-L1-Fc protein [24]): 6.77e+06 M⁻¹ s⁻¹ | fold higher affinity at pH 6 than at pH 7.4 (human PD-L1-Fc protein [25]): ~20 fold | EC50 (human PD-L1 on cells [26]): 6.1 nM | Kd (human PD-L1-Fc protein [27]): 0.18 nM | koff (human PD-L1-Fc protein [27]): 0.00129 s⁻¹ | kon (human PD-L1-Fc protein [27]): 7.36e+06 M⁻¹ s⁻¹ | Kd (human PD-L1-Fc protein [28]): 0.57 nM | koff (human PD-L1-Fc protein [28]): 0.00711 s⁻¹ | kon (human PD-L1-Fc protein [28]): 1.25e+07 M⁻¹ s⁻¹
B2: mAb 2A09 (antibody, V domains shown)
VH: QVQLVQSGGGVVQPGRSLRLSCAASGFTFSSYGMYWVRQAPGKGLEWVAVISYDGSNKYYADSVKGRFTISRDNSKNTLNLQMNSLRAEDTAVYYCAKGALTHWGVVIGDGMDVWGQGTTVTVSS
VL: NFMLTQPHSVSESPGKTVTISCTRSSGSIASNYVQWYQQRPGSSPTTVIYEDDQRPSGVPDRFSGSIDSSSNSASLTISGLKTEDEADYYCQSFDSTNPWVFGGGTKLTVL
notes: Fully human; also called 2A09_WT; 2A09 WT

From patent US20220356255A1 (CENTESSA PHARMACEUTICALS UK, published 2022)
